In this data set the test system is OTUB1.

Chain of UBCH5C (chain, as listed by the source): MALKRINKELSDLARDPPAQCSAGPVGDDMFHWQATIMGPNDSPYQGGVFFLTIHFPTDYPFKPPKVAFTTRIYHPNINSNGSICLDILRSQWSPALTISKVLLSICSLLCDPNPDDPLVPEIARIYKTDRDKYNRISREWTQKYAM

For UBCH5C, the “free ubiquitin released in a real-time deubiquitinase assay (3 µM OTUB1 with or without UbcH5c, 1 nM Atto532-tagged ubiquitin, 1 nM tIVR)” value is “OTUB1 activity is upregulated by UbcH5c, and this was detected by the experiment”.

These data come from patent publication US20180364250.
